According to US20040209282A1:

Legend:
[1] = biological target: purified IgM antibody (38C13); experiment: antibody microarray on FAST slide, goat anti-mouse IgM-HRP detection, chemiluminescence
[2] = biological target: 38C13 IgM surface receptor (idiotype receptor) of 38C13 B lymphoma cells; experiment: cell capture microarray, 38C13 cells growing in culture, no washing, microscopy
[3] = biological target: 38C13 IgM surface receptor (idiotype receptor) of 38C13 B lymphoma cells; experiment: cell capture microarray, previously frozen 38C13 cells, microscopy
[4] = biological target: 38C13 IgM surface receptor (idiotype receptor) of 38C13 B lymphoma cells; experiment: antibody microarray probed with 38C13 cell extract, goat anti-mouse IgM-HRP detection

Question: Which IgM concentration at which a strong signal was seen [1] does the source give for “S1C5 anti-idiotype monoclonal antibody (anti-IgM antibody)” here?
Answer: 0.1 µg/mL

Question: What about the lowest spotted S1C5 concentration giving a strong signal [1] of the same substance?
Answer: 25 µg/mL

Question: And the lowest printed antibody concentration at which bound cells were detected [2]?
Answer: 3.12 µg/mL

Question: What about the lowest printed antibody concentration at which bound cells were detected [3] of the same substance?
Answer: 6.25 µg/mL

Question: And the extract dilution at which 38C13 IgM was detected (fold dilution (1:x)) [4]?
Answer: 2000

Question: What about the lowest printed S1C5 concentration at which 38C13 IgM of the extract was detected [4] of the same substance?
Answer: 50 µg/mL
